Measured values from paper PMC3620054, “Lsb1 Is a Negative Regulator of Las17 Dependent Actin Polymerization Involved in Endocytosis” (PLoS ONE, 2013).

Each binder was assayed against T1, Las17 (purified recombinant) (S. cerevisiae, UniProt Q12446 1-633) (assay: SPR; Las17 coupled via an amino group to a CM5 chip, Biacore3000, 25°C, HBS-EP buffer, Lsb1, Lsb2 or their SH3 domains at 25 nM to 10 µM). Conditions: both partners purified.
T1 construct: Las17, the WASP homolog of S. cerevisiae; also called WASP homolog; source: recombinant, purified, produced as reported [25], [45], [46]
T1 sequence (Q12446 whole entry, the tested form may be a part): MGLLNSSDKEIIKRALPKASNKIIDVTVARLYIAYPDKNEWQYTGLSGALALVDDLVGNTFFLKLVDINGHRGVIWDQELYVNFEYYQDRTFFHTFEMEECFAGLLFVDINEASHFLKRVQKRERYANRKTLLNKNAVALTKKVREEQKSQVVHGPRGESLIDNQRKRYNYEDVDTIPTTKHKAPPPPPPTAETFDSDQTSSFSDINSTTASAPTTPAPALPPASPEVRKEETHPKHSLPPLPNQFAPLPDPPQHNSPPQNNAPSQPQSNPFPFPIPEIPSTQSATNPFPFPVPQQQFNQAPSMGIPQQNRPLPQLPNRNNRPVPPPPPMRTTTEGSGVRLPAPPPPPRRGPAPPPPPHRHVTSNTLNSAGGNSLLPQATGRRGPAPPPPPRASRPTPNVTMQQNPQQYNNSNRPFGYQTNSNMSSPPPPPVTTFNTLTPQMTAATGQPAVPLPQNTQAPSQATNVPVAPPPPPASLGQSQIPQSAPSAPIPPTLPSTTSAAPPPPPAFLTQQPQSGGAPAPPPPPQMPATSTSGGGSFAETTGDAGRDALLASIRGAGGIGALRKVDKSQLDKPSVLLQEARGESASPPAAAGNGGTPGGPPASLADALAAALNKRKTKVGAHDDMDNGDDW

Kd [nM] | Binder
79 | Lsb2 (purified, GST cleaved off) (natural protein, S. cerevisiae, UniProt Q06449 1-215, looked up, Lsb2 (Pin3), S. cerevisiae, full-length, from pGEX4T-1; also called full-length Lsb2; Pin3; source: E. coli BL21, purified (glutathione Sepharose, thrombin cleavage, size exclusion chromatography)) MSASLINRSLTNIRTELDFLKGSNVISNDVYDQINKSLPAKWDPANAPRNASPASLEYVEALYQFDPQQDGDLGLKPGDKVQLLEKLSPEWYKGSCNGRTGIFPANYVKPAFSGSNGPSNLPPPPQYKAQELQQIPTQNSAASSYQQQPFPPPSTNYYQQPQQQPQQAPPPQQQQQQQQHQSSHSHLKSFGSKLGNAAIFGAGASIGSDIVNNIF
730 | SH3-Lsb2 (purified, GST cleaved off) (domain or fragment, S. cerevisiae, UniProt Q06449 59-110, looked up, Lsb2 (Pin3), S. cerevisiae, SH3 domain, residues 59-110, from pGEX4T-1; also called SH3 domain of Lsb2; source: E. coli BL21, purified (glutathione Sepharose, thrombin cleavage, size exclusion chromatography)) VEALYQFDPQQDGDLGLKPGDKVQLLEKLSPEWYKGSCNGRTGIFPANYVKP
30 | Lsb1 (purified, GST cleaved off) (natural protein, S. cerevisiae, UniProt P53281 1-241, looked up, Lsb1, S. cerevisiae, full-length, from pGEX4T-1; also called full-length Lsb1; source: E. coli BL21, purified (glutathione Sepharose, thrombin cleavage, size exclusion chromatography)) MSASLVNRSLKNIRNELEFLKESNVISGDIFELINSKLPEKWDGNQRSPQNADTEEYVEALYDFEAQQDGDLSLKTGDKIQVLEKISPDWYRGKSNNKIGIFPANYVKPAFTRSASPKSAEAASSSTVSRPSVPPPSYEPAASQYPSQQVSAPYAPPAGYMQAPPPQQQQAPLPYPPPFTNYYQQPQQQYAPPSQQAPVEAQPQQSSGASSAFKSFGSKLGNAAIFGAGSAIGSDIVNSIF
792 | SH3-Lsb1 (purified, GST cleaved off) (domain or fragment, S. cerevisiae, UniProt P53281 57-109, looked up, Lsb1, S. cerevisiae, SH3 domain, residues 57-109, from pGEX4T-1; also called SH3 domain of Lsb1; source: E. coli BL21, purified (glutathione Sepharose, thrombin cleavage, size exclusion chromatography)) YVEALYDFEAQQDGDLSLKTGDKIQVLEKISPDWYRGKSNNKIGIFPANYVKP
